In US20220098287A1 (Teva, published 2022):
Where no end group is shown, it is not given here.

Target: T1, antibody G1 Fab fragment
T1 construct: also called TEV-48125; fremanezumab
Assay: SPR (Biacore) competition: 50 nM G1 Fab pre-incubated 1 h with 10 µM competing peptide, then flowed over N-biotinylated human α-CGRP on SA chip
Description: Y axis represents percentage of binding blocked by the presence of the competing peptide compared with the binding in the absence of the competing peptide.
All these peptides are amidated at the C-terminus.

T1 sequence (VH, as listed by the source, chain 1 of 2): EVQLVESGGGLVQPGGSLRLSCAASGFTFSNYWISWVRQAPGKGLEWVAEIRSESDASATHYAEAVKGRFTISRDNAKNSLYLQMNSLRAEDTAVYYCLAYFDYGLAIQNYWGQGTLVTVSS
T1 sequence (VL, as listed by the source, chain 2 of 2): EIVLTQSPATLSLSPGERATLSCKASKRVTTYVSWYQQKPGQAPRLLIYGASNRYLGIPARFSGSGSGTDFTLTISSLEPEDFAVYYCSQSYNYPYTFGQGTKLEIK

binding result: no binding (tested: 10 µM)
B1: 19-36 CONH2 (peptide)
peptide: SGGVVKNNFVPTNVGSKA-NH2
notes: also called peptide fragment 19-36 (amidated at the C-terminus) of human α-CGRP
